Broadly, the EC50 (read off the curve) is the midpoint of the concentration-response curve.

The target of one assay is T1, PDL1 protein (UniProt Q9NZQ7 19-238).
T1 construct: Bought recombinant protein
In words: ELISA, coated PDL1 protein, OD450 [panel B]. As for the experimental part: (3) PDL1 protein (purchased from Acro) was diluted to 2 μg/ml with PBS buffer, added to a 96-well plate at a volume of 100 μL/well, and placed at 4° C. overnight. The PBS buffer in the 96-well plate was aspirated, and the plate was washed 6 times with PBST (pH 7.2 PBS containing 0.10% Tween 20) buffer. Then, PBS/10% BSA was added at 200 μL/well and incubated at 37° C. for 2 h for blocking. The blocking solution was removed, and the plate was washed six times with PBST. Then, the to-be-tested bispecific antibodies serially diluted with PBST/0.05% BSA, Cross3×PDL1, Cross303×PDL1, Cross307×PDL1, Cross308×PDL1, Cross309×PDL1, Cross310×PDL1, Cross311×PDL1, Cross312×PDL1, Cross313×PDL1, Cross314×PDL1, Cross316×PDL1, Cross317×PDL1, Cross318×PDL1, Cross323×PDL1, Cross325×PDL1, Cross326×PDL1, and control IgG1LALA (purchased from Bio-Tech) were added at 100 μL/well, and incubated at 37° C. for 1 h. The reaction system was removed, and the plate was washed 6 times with PBST. Then, the cells were incubated at 37° C. for 1 h with HRP (horseradish peroxidase)-labeled anti-human secondary antibody (Fab specific) (purchased from Sigma) serially diluted with PBST/0.05% BSA at 100 μL/well. After the plate was washed six times with PBST, TMB (tetramethylbenzidine) was added at 80 μL/well and incubated at room temperature for 3 min. 4 M sulfuric acid was added at 80 μL/well to terminate the reaction. The absorbance was read at 450 nm using a microplate reader.

Assay [1] addresses T2, PDL1 on A-375 melanoma cells, HCT-15 colorectal cancer cells and A549 lung cancer cells (UniProt Q9NZQ7 19-290, limits assumed).
T2 construct: whole, on cells
The assay can be described thus: flow cytometry, HCT-15 cells, binding ratio % [panel A]. The procedure: (2) The tumor cells were diluted to 2×10⁶/ml with PBS and added to a 1.5 ml EP tube at a volume of 100 μl/tube, and goat serum was added thereto at 10 μl/tube. The cells were blocked at 4° C. for 30 min. The serially diluted bispecific antibodies, Cross3×Trop2, Cross303×Trop2, Cross307×Trop2, Cross308×Trop2, Cross309×Trop2, Cross310×Trop2, Cross311×Trop2, Cross312×Trop2, Cross313×Trop2, Cross314×Trop2, Cross316×Trop2, Cross317×Trop2, Cross318×Trop2, Cross323×Trop2, Cross325×Trop2, Cross326×Trop2, and Cross3×PDL1, Cross303×PDL1, Cross307×PDL1, Cross308×PDL1, Cross309×PDL1, Cross310×PDL1, Cross311×PDL1, Cross312×PDL1, Cross313×PDL1, Cross314×PDL1, Cross316×PDL1, Cross317×PDL1, Cross318×PDL1, Cross323×PDL1, Cross325×PDL1, Cross326×PDL1, and control hIgG1LALA (purchased from Bio-Tech) were added and incubated at 4° C. for 30 min. 1 ml of PBS was added to the EP tube, followed by centrifugation at 3500 rpm for 5 min at 4° C. The supernatant was discarded, and the cells were washed again with PBS. After centrifugation, the supernatant was completely discarded, and the cells were resuspended with PBS at 100 μl/tube. Alexa-647-labeled goat anti-human IgG secondary antibody (purchased from Jackson lab) was added at 1 μl/tube and incubated at 4° C. in the dark for 30 min. The cells were washed twice with PBS, and the supernatant was completely discarded after centrifugation. […]
(In general: Flow cytometry measures light scatter and fluorescence of single cells or particles in a stream.)

Assay [2] addresses T2, PDL1 on A-375 melanoma cells, HCT-15 …. The assay can be described thus: flow cytometry, A-375 cells, binding ratio % [panel A]. As for the experimental part:
(2) The tumor cells were diluted to 2×10⁶/ml with PBS and added to a 1.5 ml EP tube at a volume of 100 μl/tube, and goat serum was added thereto at 10 μl/tube. The cells were blocked at 4° C. for 30 min. The serially diluted bispecific antibodies, Cross3×Trop2, Cross303×Trop2, Cross307×Trop2, Cross308×Trop2, Cross309×Trop2, Cross310×Trop2, Cross311×Trop2, Cross312×Trop2, Cross313×Trop2, Cross314×Trop2, Cross316×Trop2, Cross317×Trop2, Cross318×Trop2, Cross323×Trop2, Cross325×Trop2, Cross326×Trop2, and Cross3×PDL1, Cross303×PDL1, Cross307×PDL1, Cross308×PDL1, Cross309×PDL1, Cross310×PDL1, Cross311×PDL1, Cross312×PDL1, Cross313×PDL1, Cross314×PDL1, Cross316×PDL1, Cross317×PDL1, Cross318×PDL1, Cross323×PDL1, Cross325×PDL1, Cross326×PDL1, and control hIgG1LALA (purchased from Bio-Tech) were added and incubated at 4° C. for 30 min. 1 ml of PBS was added to the EP tube, followed by centrifugation at 3500 rpm for 5 min at 4° C. The supernatant was discarded, and the cells were washed again with PBS. After centrifugation, the supernatant was completely discarded, and the cells were resuspended with PBS at 100 μl/tube. Alexa-647-labeled goat anti-human IgG secondary antibody (purchased from Jackson lab) was added at 1 μl/tube and incubated at 4° C. in the dark for 30 min. The cells were washed twice with PBS, and the supernatant was completely discarded after centrifugation. The cells were resuspended with PBS at 200 μl/tube and assay was performed using the flow cytometry.

T2 sequence (Q9NZQ7 19-290 limits assumed): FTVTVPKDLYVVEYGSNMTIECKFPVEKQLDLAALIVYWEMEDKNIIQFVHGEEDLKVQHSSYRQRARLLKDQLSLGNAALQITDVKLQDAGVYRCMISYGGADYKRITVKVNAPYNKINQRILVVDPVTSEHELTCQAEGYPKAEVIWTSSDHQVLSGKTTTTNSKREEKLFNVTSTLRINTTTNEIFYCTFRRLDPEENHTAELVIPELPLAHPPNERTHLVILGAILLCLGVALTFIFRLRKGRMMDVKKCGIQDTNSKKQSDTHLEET
T1 sequence (Q9NZQ7 19-238 limits assumed): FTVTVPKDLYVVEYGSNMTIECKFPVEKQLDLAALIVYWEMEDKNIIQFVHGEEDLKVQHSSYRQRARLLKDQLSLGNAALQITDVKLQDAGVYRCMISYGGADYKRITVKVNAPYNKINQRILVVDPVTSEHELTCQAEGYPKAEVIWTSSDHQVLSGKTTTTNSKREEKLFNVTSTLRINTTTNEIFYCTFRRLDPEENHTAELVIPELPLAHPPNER

B1: Cross326×PDL1 (bispecific antibody, human IgG1, kappa, L234A L235A)
scFv: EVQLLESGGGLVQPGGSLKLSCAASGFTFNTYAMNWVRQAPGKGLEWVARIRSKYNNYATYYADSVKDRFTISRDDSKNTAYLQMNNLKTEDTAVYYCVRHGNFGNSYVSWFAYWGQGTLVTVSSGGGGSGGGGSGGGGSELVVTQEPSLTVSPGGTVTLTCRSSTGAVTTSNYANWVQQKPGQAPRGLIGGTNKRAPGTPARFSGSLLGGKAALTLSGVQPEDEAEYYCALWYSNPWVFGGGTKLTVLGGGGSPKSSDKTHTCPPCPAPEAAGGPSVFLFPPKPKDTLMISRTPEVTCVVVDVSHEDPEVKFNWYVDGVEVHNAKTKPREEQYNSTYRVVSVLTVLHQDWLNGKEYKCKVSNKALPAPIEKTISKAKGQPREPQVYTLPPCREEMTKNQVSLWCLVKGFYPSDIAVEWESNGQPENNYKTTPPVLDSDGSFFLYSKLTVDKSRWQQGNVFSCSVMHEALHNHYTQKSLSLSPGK
heavy: QVQLVQSGAEVKKPGASVKVSCKASGYSFTGYYMHWVRQAPGQGLEWIGRINPYNGATTYSQNFKDRATMTVDTSISTAYMELSRLRSDDTAVYYCVPTGMGYFLMDYWGQGTLVTVSSASTKGPSVFPLAPSSKSTSGGTAALGCLVKDYFPEPVTVSWNSGALTSGVHTFPAVLQSSGLYSLSSVVTVPSSSLGTQTYICNVNHKPSNTKVDKKVEPKSCDKTHTCPPCPAPEAAGGPSVFLFPPKPKDTLMISRTPEVTCVVVDVSHEDPEVKFNWYVDGVEVHNAKTKPREEQYNSTYRVVSVLTVLHQDWLNGKEYKCKVSNKALPAPIEKTISKAKGQPREPQVCTLPPSREEMTKNQVSLSCAVKGFYPSDIAVEWESNGQPENNYKTTPPVLDSDGSFFLVSKLTVDKSRWQQGNVFSCSVMHEALHNHYTQKSLSLSPGK
light: DIQLTQSPSFLSASVGDRVTITCKASQDVGSAVVWYQQKPGKAPKLLIYWASTRHTGVPSRFSGSGSGTEFTLTISSLQPEDFATYFCQQFTSYPTFGQGTKLEIKRTVAAPSVFIFPPSDEQLKSGTASVVCLLNNFYPREAKVQWKVDNALQSGNSQESVTEQDSKDSTYSLSSTLTLSKADYEKHKVYACEVTHQGLSSPVTKSFNRGEC
As for B1, the “EC50 (read off the curve)” value with PDL1 protein was about 0.1 µg/mL; in assay [1] it was about 0.07 µg/mL; in assay [2], about 0.07 µg/mL.
